Here are results for 1 molecule from patent US20240344110A1, “COMPOSITION FOR CELL LYSIS AND NUCLEIC ACID EXTRACTION, NUCLEIC ACID EXTRACTION METHOD USING SAME, AND MOLECULAR DIAGNOSTIC METHOD USING SAME” (INVITROS CO., LTD., priority 2021, published 2024).

Experiment [1] relates to RNase. Kind of experiment: Ct value depending on temperature of first heating step (Experimental Example 3). The settings on record: RNase inhibitor 30 U/rxn, incubation 5 minutes. In kind it is biochemical.
In experiment [2] the test system is RNase. Nature of the experiment: Ct value depending on concentration of RNase inhibitor in first heating step (Experimental Example 2). In kind it is biochemical. The settings on record: first heating 37° C. 5 minutes.

B1: RNase inhibitor: RNase inhibitor (Nanohelix RNase Inhibitor) derived from murine lung (protein, UniProt Q91VI7 1-456, looked up)
Ribonuclease inhibitor: MSLDIQCEQLSDARWTELLPLIQQYEVVRLDDCGLTEVRCKDISSAVQANPALTELSLRTNELGDGGVGLVLQGLQNPTCKIQKLSLQNCGLTEAGCGILPGMLRSLSTLRELHLNDNPMGDAGLKLLCEGLQDPQCRLEKLQLEYCNLTATSCEPLASVLRVKADFKELVLSNNDLHEPGVRILCQGLKDSACQLESLKLENCGITAANCKDLCDVVASKASLQELDLSSNKLGNAGIAALCPGLLLPSCKLRTLWLWECDITAEGCKDLCRVLRAKQSLKELSLASNELKDEGARLLCESLLEPGCQLESLWIKTCSLTAASCPYFCSVLTKSRSLLELQMSSNPLGDEGVQELCKALSQPDTVLRELWLGDCDVTNSGCSSLANVLLANRSLRELDLSNNCMGGPGVLQLLESLKQPSCTLQQLVLYDIYWTNEVEEQLRALEEERPSLRIIS
On to B1, for which, in the experiment on RNase [1], the “Ct value at first heating temperature of 25° C. to 37° C.” value is reported as “constant” and the “Ct value at first heating temperature of 45° C. or higher” value was “increased”. Moreover, the “Ct value as the concentration of the RNase inhibitor increased” value in the experiment on RNase [2] (7.5 U/rxn to 45 U/rxn) was “gradually decreased”. Moreover, the “Ct value at 52.5 U/rxn” value in the experiment on RNase [2] (52.5 U/rxn) is recorded as “lower than that at a concentration of 7.5 U/rxn”.
